From the DeepSol protein solubility set

experiment: soluble on expression in E. coli; label from the status in PepcDB or PDB records

Sequence | soluble on expression in E. coli
MAHHHHHHMQLQADLTQRTDSVNAIQRNFERLSAMHHAEQLELRRLRLLEKTRSEVAPDGLDAATRQLESVLAEMRHKALEQQTTFVQMEVDLQAANSSCALQQGIARLIASHADGFRDVLQAEAVAHSQLYQSAMSERAIIGSRNEATQQQLLCKDVAQLVADHQAQIVTKLIRGGAAESCRLQKSLAQVSTATVQELVRQGLRETAEAVHQYVASIHAADQERVLAEAEGQRDRERLRLALGELLRLRLRATEEAEATARQALLFGALQACATAQRAAEEVRLLTANADAAAAATRSSWEVTAALLTRRVSDWHDAADMRLVDFHDTIEASMAEKARERDAQSQQKTQELLLEERKRLENLHASQMQTMQVDWRRQRDAVQQSHAMQLEQVRSDLVAQVQVAEDRRVAAERRTGAMEAALIQLKRDHAAEVQAVEAHWRSAVSDAGRHCEQRWRTMLEVYQEGQKAHRGAMLQLFVDFLCTRGQCVYEEQAERAALCRSHWRNQTQHLREEQAAVMQHGVATADLLERMRCHKEDEAASRAVLHASEASDWAALVRKEAAHNAQAHHAVSMAAAAAGLEGLRAEMAGREVRWGQRLDALEADLRRAQQKCLGVVRRASDAVVAAQEAQAALQATQRDFAAYRCGVSAAAQRIEVAESATESACCCSLCLQLYCQPVACVPCGHIYCANCLLRHARNRSLSSVTSSFASAAGASTSENGAVGARAALEVTHWLRGKSTPHAFLFCPECASATVSTVVELPILGELTAKYDYKKRSLAVLLAELR | not soluble
MGSDKIHHHHHHMTNWLPDPSALASPLHSSLALAIAKAISEGKLPKGTQLPTHRKLAEELGLSVHTVSKAYESLRRQRLIDGQVGRGSYVLDLNTPDDQPFQLSSERGRNFDLSISRPAFSQRHAELFQQVLADLPQGLDPSYYLACRPNVGHDAHRAAGETWLRICGLDVPSERIIMTNGVSHGMSAALSALARPGDTVVSSRITHHLLVSGCSYLGLNLVGIDFDQDGMLPDALDRHCSENNAKVLFLLPSLANTTVEMIPEERRQALVQVARKHNLYIIENDAFGPVAEDRPVPVAALAPERTIYLTTFTKCTVSGLRAGYMAAPEHLLPALTGRIVVFGWMATPLMCEIATRWVLDGTALELALWQRRALAERYEIASQALQGHQWRGHPSALHLWLPLESGWTTSSFVAYARQLKVAVAPDAPFLTPKTPPPNAVRISLGSVQDLSRFKQAMELVGGMLSRPPEGVAPLAF | not soluble
MPTLRFRQKVVHKLNNSGIIARPKTVIHPIKMKTTLIAAAEVDRLETWQRYTSNMCHGCHSTCCTLPVEVKIKDLIRIGVVDEFEKDEPPKNVAKRLQKEGIIERFNQKSGIFTLTRMSNDDCMYLDRKSRLCTIYDKRPDTCRNHPKVGPRPGYCAYKPKVVGRLEHHHHHH | not soluble
MENMIVIMAGGRSSRMGAEKPILKVNGKPMILRVYEESTKVGETLVAISKNTPKTRELCIKEGIPLIETPGEGYVEDVRYLLKELGSFVSVSADLPFVKACDIAEVKKAFDGKTSLTGVLPLSKVPTDLRPVVYKGYVIVGLNGVGFEGEKFYELSNPLLALNVNTPEELKLANRIAKLIGLEHHHHHH | not soluble
MAHHHHHHMSPVLVPTACEDWSLNIDDESAKRFWWNNTYSITLWEETLNIEQQAEKITDGDVWSKFIDLQLRCAFKICSICHSPEGNADMKICCYCGNTVHENCSEPAAPEQIMWKPANLAYVEHMRACFQCQAVNYKEPLAPQSPSEWDNARRAAKRALTISDEYPPATVERIQKLLQRAETTSNDAVLLSELKSLVQSYFQSPQSLQFLRKERVASKGGGIGVVAARKIPAFSIIGVYPGYLDFMSGEQAKCGRPVPKYALMEYNCANYFNEVFVELQTTFTPFINEPNVDEKSNCAWIQEPHRKNGRLSVICVRDIQEGEELTIGYGPIYPRTYPYCYDAYACHQIEGHTTHPCYSLWHWPTLQEADARFVCHIGYIERDDCYVLWKNET | soluble
MKQEIIIAGFGGQGVLSMGKILAYSGLMEDKEVTWMPAYGPEQRGGTANVTVIVSDERISSPILSQYDTAIILNQPSLEKFEGKIKPGGILIYDGYGIIEPPTRKDIQIYRIDAMDAANEKGMAKTFNMIVLGGLLKLRPVVSIESVIKALRKTLPERHHHLIPMNEEAIRIGMEIIK | not soluble
MSNRNLRSSTNSEFSEGQHQTPSSDSSGHGEDQPQASPGPNKKSHTPKKNISKGAVLHEKPMTVMVLTATEPFNYKEGKENMFHATVATESKYYRVKVFNMDLKEKFTENQFITISKYFNSSGILEINETATVSEAAPNQMFEVPKNIIRSAKETLKISKIKELDSGTLIYGVFAVEKKKVNDKSITFKIKDNEDNIKVVWDKEQHNINYEKGDKLQLFSFHLRKGNGKPILHSGNHSFIKGEKLLKESFEGDGYHKGPKQVVALKATKLFTYDSIKSKKMFHATVATDTEFFRVMVFEENLEKKFIPGNTIALSDYFGMYGSLAIHEYSSVSEVKSQNKEDSSSSDERPIEHLKICDLHLQTEERLVDGEFKVYRKSSGNNCICYGIWDDTGAMKVVVSGQLTSVNCEIGNTIRLVCFELTSNADEWFLRATRYSYMEVIMPEK | not soluble
MGSDKIHHHHHHMQVLGLCRFSYLGLGGFKVMHETLEERRAYLYAPARMEDRFRQFEAVTLPSVTGQTDPDFEFLVVIGECFPDSYRARLEDLVRGVPQVRIRAYPPLRHRTAMAQALDDHRRDMDAPCLQFRLDDDDGMARDFVARYREVAADTEALWRKHPAVAVDFNTGYVFRCGKRGIEISPFQFAYSAIALGVIVAPGHREGIMHFGHHKLWTVMPTITVPGEDMMLRGHNEFNDSRAKPGAKQFSYQPLDADEEAYFKARFNVDNARVREIFSAPMP | not soluble
SAVFSDPQIAMVGETYKEITTRLGTCGCFATGEVSFENQGRSRVMLRNKGILHVYGEQGTGRFLGAEMMGPNAEHLAHLLAWAHQNKMTVSEMLDMPFYHPVIEEGVRTALRDLNAKLHLGPEMIKHCMDCGPGC | not soluble
PKATAQMEGRLQEFLTAYAPGARLALADGVLGFIHHQIVELARDCLAKSGENLVTSRYFLEMQEKLERLLQDAHERSDSEEVSFIVQLVRKLLIIISRPAR | soluble
GSSGSSGQFSDMRISINQTPGKSLDFGFTIKWDIPGIFVASVEAGSPAEFSQLQVDDEIIAINNTKFSYNDSKEWEEAMAKAQETGHLVMDVRRYGK | soluble
MGMELILREWMGKEKDYSISYSTYMNLVLYTEGHGYYMKEREKIGRQGDFFTSSNVSSVFAKTFAKLFIRLVENGEVASNICEVGGGTGKFAYDVLQEWKQLSPNTFINLNYSMIEVSPFHRKLQQEQLGSFSNVSYYTSYSEMGDSFEGILFSNELFDAFPVEVIEKRNGILYEVRITYTEEGNLSEVCRPLNKRIGRYLLKYNIHIAEGQRFEVPIVMEEYIKEISKWFQKGICITVDYGYTKEEWMHPAHREGSLRGYYQHKLMRNPLAHPGEMDLTTHVHWDELKEMFSMQGMSAVWHKKQSEFLLAAGILEQLTSHQDTNPFSETQKQNRAVRSMILNGGVGSSFDVVIHTKDMQHLHLDQYVTILEHHHHHH | soluble
GMSAKDVFHQVVKIALEKDGWQITNDPLTISVGGVNLSIDLGAEKLIAAEREGEKIAVEVKSFLERSSAISEFHTALGQFINYRGALRRRQPERVLYLAVPLTTYKTFFQLDFPKEMIAENQVKMLIYDVEQEVIFQWIN | soluble
MSLTASDQFNSTHSAVDQYAELVLHNGRMYTLDPAQPWADAVAIRQGKLIAVGSLASLASLIGPNTRQHDLDGAFCMPGLHDMHTHPDLALAPRYADDLDVGIEDPTPEQLAAAIHAYADSHPGDGWIYGQYWVRYTFREAGLTPGREWLDSVMPHRPVALLDRMWGTMMVNSKALELAGIDRHTSDPRNGYLERDELTGEPNGLLIDGAYALIHAAMPPTPVSVLRRAYRDGVHFQTSRGVTATKYVHVCENRLQALKELDDAGELTLRVEAAISWQDDIFPVRRRWELLSGERHFYRSARLSANAVKFHFDGTVEPKSSYLLTPWPEESSWRGKLNLTPEHITDMVVDMDKRGLRVIAHCTGDGASDVFLDAVAEARRRNGNSGIRHQCAHSTLLHPGNLKRFQALDVIAEFSPAAWYPTPFASGARSGYGQERLKRIYDFKGVLAAGGIAVFGTDWPVASIDPWLALETMVTRQNPWNQEPDTFGDPISLEQALQVATLNGAHAMGLEHLTGSLEAGKSADLIVLDRDLFAQGARNYIHHTQVQLTFVEGQLVYDRQGTEGHHHHHH | not soluble
